B1: GOLPH3 (parent)
chain: FAPLLDEQYDLATKRVRQLLDLDP

Variants of: B1
Test: protein stability index of a GFP-peptide fusion (GPS, HEK-293T) (PSI 1-6); higher = more stable
Conditions: c terminus: a fixed tail appended
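Also: lentivirally expressed fusions sorted by FACS into six bins by GFP to DsRed ratio, PSI derived from sequencing read proportions per bin multiplied by bin number.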

| Variant | protein stability index |
| --- | --- |
| D6E | 2.22 |
| D6F | 1.49 |
| D6G | 1.45 |
| D6H | 1.48 |
| D6I | 1.46 |
| D6K | 2.4 |
| D6L | 1.83 |
| D6M | 2.25 |
| D6N | 1.54 |
| D6P | 2.81 |
| D6Q | 1.42 |
| D6S | 2.26 |
| D6T | 1.76 |
| D6V | 1.75 |
| D6W | 1.88 |
| D6Y | 2.03 |
| E7A | 1.49 |
| E7C | 1.98 |
| E7D | 2.02 |
| E7F | 1.91 |
| E7G | 1.86 |
| E7H | 1.76 |
| E7I | 1.65 |
| E7K | 1.87 |

| Variant | protein stability index |
| --- | --- |
| E7L | 1.55 |
| E7M | 1.9 |
| E7N | 1.91 |
| E7P | 2.12 |
| E7Q | 2.66 |
| E7R | 2.79 |
| E7S | 2.12 |
| E7T | 1.86 |
| E7V | 1.89 |
| E7W | 2.56 |
| E7Y | 1.48 |
| Q8A | 2.29 |
| Q8C | 2.1 |
| Q8D | 2.96 |
| Q8E | 2.64 |
| Q8F | 1.5 |
| Q8G | 2.08 |
| Q8H | 2.04 |
| Q8K | 1.75 |
| Q8L | 1.95 |
| Q8M | 1.88 |
| Q8N | 1.84 |
| Q8P | 1.74 |
| Q8R | 1.39 |

| Variant | protein stability index |
| --- | --- |
| Q8S | 2.24 |
| Q8T | 2.64 |
| Q8W | 1.32 |
| Q8Y | 2.33 |
| Y9A | 2.9 |
| Y9C | 2.9 |
| Y9D | 2.98 |
| Y9E | 3.5 |
| Y9F | 2.75 |
| Y9G | 2.24 |
| Y9H | 2.49 |
| Y9I | 2.26 |
| Y9K | 2.4 |
| Y9L | 2.15 |
| Y9M | 2.46 |
| Y9N | 2.57 |
| Y9P | 2.59 |
| Y9Q | 2.64 |
| Y9R | 2.2 |
| Y9S | 2.96 |
| Y9T | 2.45 |
| Y9V | 1.24 |
| Y9W | 2.06 |
| D10C | 2.54 |

| Variant | protein stability index |
| --- | --- |
| D10E | 2.36 |
| D10F | 2.69 |
| D10G | 2.15 |
| D10H | 1.58 |
| D10I | 1.88 |
| D10K | 1.98 |
| D10L | 1.72 |
| D10M | 2.24 |
| D10N | 1.59 |
| D10P | 2.4 |
| D10Q | 1.46 |
| D10R | 2.23 |
| D10S | 2.03 |
| D10T | 1.56 |
| D10V | 1.27 |
| D10W | 3.11 |
| D10Y | 1.63 |
| L11A | 3.3 |
| L11C | 2.26 |
| L11D | 3.09 |
| L11E | 3.48 |
| L11F | 1.94 |
| L11G | 2.38 |
| L11H | 2.73 |

| Variant | protein stability index |
| --- | --- |
| L11I | 2.36 |
| L11K | 2.56 |
| L11M | 3.03 |
| L11N | 2.28 |
| L11P | 2.91 |
| L11Q | 3.52 |
| L11S | 2.27 |
| L11T | 2.28 |
| L11V | 2.21 |
| L11W | 2.82 |
| L11Y | 2.51 |
| A12C | 1.57 |
| A12D | 2.72 |
| A12E | 2.66 |
| A12F | 1.74 |
| A12G | 2.12 |
| A12H | 2.43 |
| A12I | 1.43 |
| A12K | 1.99 |
| A12L | 1.82 |
| A12M | 2.8 |
| A12N | 2.47 |
| A12P | 2.04 |
| A12Q | 2.16 |

| Variant | protein stability index |
| --- | --- |
| A12R | 2.04 |
| A12S | 2.36 |
| A12T | 2.3 |
| A12V | 1.88 |
| T13A | 2.41 |
| T13C | 1.54 |
| T13D | 2.92 |
| T13E | 2.56 |
| T13F | 1.96 |
| T13G | 3.19 |
| T13H | 2.18 |
| T13I | 1.6 |
| T13K | 2.32 |
| T13L | 2.28 |
| T13M | 1.89 |
| T13N | 1.9 |
| T13P | 2.22 |
| T13Q | 1.84 |
| T13R | 1.57 |
| T13S | 2.24 |
| T13V | 2.28 |
| T13Y | 1.28 |
| K14A | 1.76 |
| K14C | 2.29 |

| Variant | protein stability index |
| --- | --- |
| K14D | 2.94 |
| K14E | 2.14 |
| K14F | 1.17 |
| K14G | 1.99 |
| K14H | 1.99 |
| K14I | 1.64 |
| K14L | 3.14 |
| K14M | 1.59 |
| K14N | 2.02 |
| K14P | 2.29 |
| K14Q | 1.88 |
| K14R | 2.24 |
| K14S | 2 |
| K14T | 2.11 |
| K14V | 1.84 |
| K14W | 2.28 |
| K14Y | 1.97 |
| R15A | 2.56 |
| R15C | 2.1 |
| R15D | 2.73 |
| R15E | 2.43 |
| R15F | 2.06 |
| R15G | 1.74 |

Source: the supplement of paper PMC10567573
